Measured values published in paper doi:10.1101/2022.06.23.497280 (bioRxiv, 2022).

T1: HU-B (UniProt P0ACF4 1-90, F47W)
T1 sequence: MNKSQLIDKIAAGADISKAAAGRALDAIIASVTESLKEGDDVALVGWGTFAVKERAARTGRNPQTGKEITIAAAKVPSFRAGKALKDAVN

B1: HU-A (F79W mutant of HU-A) (natural protein, E. coli)
chain: MNKTQLIDVIAEKAELSKTQAKAALESTLAAITESLKEGDAVQLVGFGTFKVNHRAERTGRNPQTGKEIKIAAANVPAWVSGKALKDAVK
B2: 4WJ DNA (four-way junction, cruciform) (structured_DNA)
DNA 1: CCCTATAACCCCTGCATTGAATTCCAGTCTGATAA
DNA 2: GTAGTCGTGATAGGTGCAGGGGTTATAGGG
DNA 3: AACAGTAGCTCTTATTCGAGCTCGCGCCCTATCACGACTA
DNA 4: TTTATCAGACTGGAATTCAAGCGCGAGCTCGAATAAGAGCTACTGT

What was measured:
[1] = molecular target: the molecule itself; assay: SEC
[2] = molecular target: HU-A (UniProt P0ACF0 1-90, F79W); assay: EMSA
[3] = molecular target: T1, HU-B; assay: EMSA

| Binder | stoichiometry N [1] | binding result [2] | binding result [3] |
| --- | --- | --- | --- |
| B1 | 2 | – | – |
| B2 | – | binds | binds |
